Assay results taken from paper PMC8367383, “A CTP-dependent gating mechanism enables ParB spreading on DNA” (eLife, 2021).

B1: C. crescentus ParB on a cysteine-less ParB background [C. crescentus] / itself (parent)
chain: MESVVVGEPGMSEGRRGLGRGLSALLGEVDAAPACAPGEQLGGSREAPIEILQRNPDQPRRTFREEDLEDLSNSIREKGVLQPILVRPSPDTAGEYQIVAGERRWRAAQRAGLKTVPIMVRELDDLAVLEIGIIENVQRADLNVLEEALSYKVLMEKFERTQENIAQTIGKSRSHVANTMRLLALPDEVQSYLVSGELTAGHARAIAAAADPVALAKQIIEGGLSVRETEALARKAPNLSAGKSKGGRPPRVKDTDTQALESDLSSVLGLDVSIDHRGSTGTLTITYATLEQLDDLSNRLTRGI

Variants of: B1
Assay: BMOE crosslinking assay
Conditions: with itself, 8 µM ParB variant, 0.5 µM 22 bp parS DNA, 5 min preincubation, read off a plot
[1] = 1 µM CTP point (lowest), parent: 33
[2] = 1000 µM CTP point (highest), parent: 80

| Variant | response [1] [%] | response [2] [%] |
| --- | --- | --- |
| MESVVVGEPGMSEGRRGLGRGLSALLGEVDAAPACAPGEQLGGSREAPIEILQRNPDQPRRTFREEDLEDLSNAIREKGVLQPILVRPSPDTAGEYQIVAGERRWRAAQRAGLKTVPIMVRELDDLAVLEIGIIENVQRADLNVLEEALSYKVLMEKFERTQENIAQTIGKSRSHVANTMRLLALPDEVQSYLVSGELTAGHARAIAAAADPVALAKQIIEGGLSVRETEALARKAPNLSAGKSKGGRPPRVKDTDTQALESDLSSVLGLDVSIDHRGSTGTLTITYATLEQLDDLSNRLTRGI [chain 1 S74A] | 28 | 39 |
| MESVVVGEPGMSEGRRGLGRGLSALLGEVDAAPACAPGEQLGGSREAPIEILQRNPDQPRRTFREEDLEDLSNSIREKGVLQPILVRPSPDTAGEYQIVAGEARWRAAQRAGLKTVPIMVRELDDLAVLEIGIIENVQRADLNVLEEALSYKVLMEKFERTQENIAQTIGKSRSHVANTMRLLALPDEVQSYLVSGELTAGHARAIAAAADPVALAKQIIEGGLSVRETEALARKAPNLSAGKSKGGRPPRVKDTDTQALESDLSSVLGLDVSIDHRGSTGTLTITYATLEQLDDLSNRLTRGI [chain 1 R103A] | 30 | 34 |
| MESVVVGEPGMSEGRRGLGRGLSALLGEVDAAPACAPGEQLGGSREAPIEILQRNPDQPRRTFREEDLEDLSNSIREKGVLQPILVRPSPDTAGEYQIVAGERRWRAAQRAGLKTVPIMVRELDDLAVLEIGIIENVQAADLNVLEEALSYKVLMEKFERTQENIAQTIGKSRSHVANTMRLLALPDEVQSYLVSGELTAGHARAIAAAADPVALAKQIIEGGLSVRETEALARKAPNLSAGKSKGGRPPRVKDTDTQALESDLSSVLGLDVSIDHRGSTGTLTITYATLEQLDDLSNRLTRGI [chain 1 R139A] | 28 | 36 |
| MESVVVGEPGMSEGRRGLGRGLSALLGEVDAAPACAPGEQLGGSREAPIEILQRNPDQPRRTFREEDLEDLSNSIREKSVLQPILVRPSPDTAGEYQIVAGERRWRAAQRAGLKTVPIMVRELDDLAVLEIGIIENVQRADLNVLEEALSYKVLMEKFERTQENIAQTIGKSRSHVANTMRLLALPDEVQSYLVSGELTAGHARAIAAAADPVALAKQIIEGGLSVRETEALARKAPNLSAGKSKGGRPPRVKDTDTQALESDLSSVLGLDVSIDHRGSTGTLTITYATLEQLDDLSNRLTRGI [chain 1 G79S] | 27 | 62 |
| MESVVVGEPGMSEGRRGLGRGLSALLGEVDAAPACAPGEQLGGSREAPIEILQRNPDQPRRTFREEDLEDLSNSIREKGVLQPILVRPSPDTAGEYQIVAGARRWRAAQRAGLKTVPIMVRELDDLAVLEIGIIENVQRADLNVLEEALSYKVLMEKFERTQENIAQTIGKSRSHVANTMRLLALPDEVQSYLVSGELTAGHARAIAAAADPVALAKQIIEGGLSVRETEALARKAPNLSAGKSKGGRPPRVKDTDTQALESDLSSVLGLDVSIDHRGSTGTLTITYATLEQLDDLSNRLTRGI [chain 1 E102A] | 31 | 80 |
| MESVVVGEPGMSEGRRGLGRGLSALLGEVDAAPACAPGEQLGGSREAPIEILQRNPDQPRRTFREEDLEDLSNSIREKGVLQPILVRPSPDTAGEYQIVAGERRWRAAQRAGLKTVPIMVRELDDLAVLEIGIIEAVQRADLNVLEEALSYKVLMEKFERTQENIAQTIGKSRSHVANTMRLLALPDEVQSYLVSGELTAGHARAIAAAADPVALAKQIIEGGLSVRETEALARKAPNLSAGKSKGGRPPRVKDTDTQALESDLSSVLGLDVSIDHRGSTGTLTITYATLEQLDDLSNRLTRGI [chain 1 N136A] | 52 | 64 |
| MESVVVGEPGMSEGRRGLGRGLSALLGEVDAAPACAPGEQLGGSREAPIEILQRNPDQPARTFREEDLEDLSNSIREKGVLQPILVRPSPDTAGEYQIVAGERRWRAAQRAGLKTVPIMVRELDDLAVLEIGIIENVQRADLNVLEEALSYKVLMEKFERTQENIAQTIGKSRSHVANTMRLLALPDEVQSYLVSGELTAGHARAIAAAADPVALAKQIIEGGLSVRETEALARKAPNLSAGKSKGGRPPRVKDTDTQALESDLSSVLGLDVSIDHRGSTGTLTITYATLEQLDDLSNRLTRGI [chain 1 R60A] | 32 | 49 |
| MESVVVGEPGMSEGRRGLGRGLSALLGEVDAAPACAPGEQLGGSREAPIEILQRNPDAPRRTFREEDLEDLSNSIREKGVLQPILVRPSPDTAGEYQIVAGERRWRAAQRAGLKTVPIMVRELDDLAVLEIGIIENVQRADLNVLEEALSYKVLMEKFERTQENIAQTIGKSRSHVANTMRLLALPDEVQSYLVSGELTAGHARAIAAAADPVALAKQIIEGGLSVRETEALARKAPNLSAGKSKGGRPPRVKDTDTQALESDLSSVLGLDVSIDHRGSTGTLTITYATLEQLDDLSNRLTRGI [chain 1 Q58A] | 64 | 79 |
| MESVVVGEPGMSEGRRGLGRGLSALLGEVDAAPACAPGEQLGGSREAPIEILQRNPDQPRRTFREEDLEDLSNSIREKGVLAPILVRPSPDTAGEYQIVAGERRWRAAQRAGLKTVPIMVRELDDLAVLEIGIIENVQRADLNVLEEALSYKVLMEKFERTQENIAQTIGKSRSHVANTMRLLALPDEVQSYLVSGELTAGHARAIAAAADPVALAKQIIEGGLSVRETEALARKAPNLSAGKSKGGRPPRVKDTDTQALESDLSSVLGLDVSIDHRGSTGTLTITYATLEQLDDLSNRLTRGI [chain 1 Q82A] | 31 | 76 |
| MESVVVGEPGMSEGRRGLGRGLSALLGEVDAAPACAPGEQLGGSREAPIEILQRNPDQPRRTFREEDLEDLSNSIREKGVLQPILVRPSPDTAGEYQIVAGERRWRAAQRAGLKTVPIMVRELDDLAVLEIGIIANVQRADLNVLEEALSYKVLMEKFERTQENIAQTIGKSRSHVANTMRLLALPDEVQSYLVSGELTAGHARAIAAAADPVALAKQIIEGGLSVRETEALARKAPNLSAGKSKGGRPPRVKDTDTQALESDLSSVLGLDVSIDHRGSTGTLTITYATLEQLDDLSNRLTRGI [chain 1 E135A] | 68 | 80 |
| MESVVVGEPGMSEGRRGLGRGLSALLGEVDAAPACAPGEQLGGSREAPIEILQRNPDQPRRTFREEDLEDLSNSIREKGVLQPILVRPSPDTAGEYQIVAGERAWRAAQRAGLKTVPIMVRELDDLAVLEIGIIENVQRADLNVLEEALSYKVLMEKFERTQENIAQTIGKSRSHVANTMRLLALPDEVQSYLVSGELTAGHARAIAAAADPVALAKQIIEGGLSVRETEALARKAPNLSAGKSKGGRPPRVKDTDTQALESDLSSVLGLDVSIDHRGSTGTLTITYATLEQLDDLSNRLTRGI [chain 1 R104A] | 24 | 23 |
